Assay results taken from US20230075633A1.

Experiments:
human CEA (human) = human CEA (human) (UniProt P06731); assay: cell-based or functional assay
human CD3 (human) [1] = biological target: human CD3 (human) (UniProt P07766); assay: flow cytometry on human PBMC (ND 12)
human CD3 (human) [2] = biological target: human CD3 (human) (UniProt P07766); assay: flow cytometry on Jurkat cells

Chain of human CEA (human) (P06731 35-702, form in doubt): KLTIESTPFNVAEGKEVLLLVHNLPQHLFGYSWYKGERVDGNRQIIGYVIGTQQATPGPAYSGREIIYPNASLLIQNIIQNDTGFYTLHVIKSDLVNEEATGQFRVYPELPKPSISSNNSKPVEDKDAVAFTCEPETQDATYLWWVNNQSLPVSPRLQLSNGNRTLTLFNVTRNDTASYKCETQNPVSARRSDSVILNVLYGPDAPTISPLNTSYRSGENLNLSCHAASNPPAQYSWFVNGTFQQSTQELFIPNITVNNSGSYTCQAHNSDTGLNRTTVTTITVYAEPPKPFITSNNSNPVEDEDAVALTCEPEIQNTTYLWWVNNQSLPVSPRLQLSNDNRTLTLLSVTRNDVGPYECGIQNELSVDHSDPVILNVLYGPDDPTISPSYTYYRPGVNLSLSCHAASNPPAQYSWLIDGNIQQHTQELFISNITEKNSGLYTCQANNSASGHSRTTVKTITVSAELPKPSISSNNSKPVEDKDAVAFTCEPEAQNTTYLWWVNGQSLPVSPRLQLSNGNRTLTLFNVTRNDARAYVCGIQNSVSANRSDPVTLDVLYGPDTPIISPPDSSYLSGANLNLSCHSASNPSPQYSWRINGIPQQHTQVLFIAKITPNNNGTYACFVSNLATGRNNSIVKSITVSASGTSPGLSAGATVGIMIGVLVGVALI
Chain of human CD3 (human) (P07766 23-207): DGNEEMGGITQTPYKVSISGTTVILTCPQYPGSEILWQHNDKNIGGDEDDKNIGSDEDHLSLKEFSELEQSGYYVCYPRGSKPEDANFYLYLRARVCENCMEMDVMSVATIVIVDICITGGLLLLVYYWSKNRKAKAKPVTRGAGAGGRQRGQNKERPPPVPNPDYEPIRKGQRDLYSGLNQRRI

Substance: Roche CEA-TCB (bispecific antibody)
- cytolysis of LS174T cells by PBMC: EC50 (human CEA (human)): 5 pM
- cytolysis of MKN-45 cells by PBMC, E/T 20:1, 48 h: EC50 against that of CEA/CD3OPT1a3b2b1 BsAb (human CEA (human)): 50 fold
- cytolysis of MKN-45 cells by PBMC: EC50 (human CEA (human)): 1 pM
- EC50 (human CD3 (human) [1]): 340 pM
- EC50 (human CD3 (human) [2]): 207 pM
